One block for each binder: values may come before it.
How the values were obtained:
crystal structure = target: the molecule itself; assay: crystal structure
H3/H4 tetramer [1] = target: T1, H3/H4 tetramer (UniProt P84233 1-136; P62799 1-103); assay: ITC
H2A/H2B dimer [2] = target: T2, H2A/H2B dimer (UniProt P06897 1-130; P02281 1-126); assay: ITC
H3/H4 tetramer [3] = target: T1, H3/H4 tetramer; assay: AUC
AUC = target: the molecule itself; assay: AUC
H2A/H2B dimer [4] = target: T2, H2A/H2B dimer; assay: AUC

B1: AtFKBP43 NTD (1-110) (domain or fragment, Arabidopsis thaliana, UniProt F4J9Q6 1-110, looked up)
chain: MAFWGVEVKPGKTFTLKNNEATGIRRLHLSQATLGHGTATNRSILQCNVGNKSPLLLCVLTPDKVDSCQLNLEFEETDEVIFSVIGPRSVHLTGYFLGRSTGFRPNDDES
stoichiometry N (crystal structure): 5

B3: AtFKBP43 NTD (1-96) (domain or fragment, Arabidopsis thaliana, UniProt F4J9Q6 1-96, looked up)
chain: MAFWGVEVKPGKTFTLKNNEATGIRRLHLSQATLGHGTATNRSILQCNVGNKSPLLLCVLTPDKVDSCQLNLEFEETDEVIFSVIGPRSVHLTGYF
stoichiometry N (AUC): 5

Second part, led by results:

Kd (H3/H4 tetramer [1]): 18 ± 2 nM
Kd (H2A/H2B dimer [2]): 60 ± 6 nM
stoichiometry N (H3/H4 tetramer [3]): 1
stoichiometry N (H2A/H2B dimer [4]): 1
B2: AtFKBP43 (1-164) (domain or fragment, Arabidopsis thaliana, UniProt F4J9Q6 1-164, looked up)
chain: MAFWGVEVKPGKTFTLKNNEATGIRRLHLSQATLGHGTATNRSILQCNVGNKSPLLLCVLTPDKVDSCQLNLEFEETDEVIFSVIGPRSVHLTGYFLGRSTGFRPNDDESESFGEDIVDTDMEKGSSDDYDYSDSFINDDDPAVRGSHVSSTDDDEISIKEMTA
stoichiometry N (AUC): 5

Kd (H3/H4 tetramer [1]): 610 ± 40 nM
Kd (H2A/H2B dimer [2]): 460 ± 30 nM
stoichiometry N (H3/H4 tetramer [3]): 1
stoichiometry N (H2A/H2B dimer [4]): 1
B4: AtFKBP43 (1-136) (domain or fragment, Arabidopsis thaliana, UniProt F4J9Q6 1-136, looked up)
chain: MAFWGVEVKPGKTFTLKNNEATGIRRLHLSQATLGHGTATNRSILQCNVGNKSPLLLCVLTPDKVDSCQLNLEFEETDEVIFSVIGPRSVHLTGYFLGRSTGFRPNDDESESFGEDIVDTDMEKGSSDDYDYSDSF
stoichiometry N (AUC): 5
